This is an account of results in patent publication US20140242093, “METHODS AND COMPOSITIONS FOR MODULATING THE INNATE IMMUNE RESPONSE AND/OR MYOGENESIS IN A MAMMALIAN SUBJECT” (FRED HUTCHINSON CANCER RESEARCH CENTER, published 2014).

Sequences and labels used below:
B1: TRIM48mut (dsDNA)
DNA 1: AGGAGTGATGATACTTTTATGAGCCGTGCAA
DNA 2: TTGCACGGCTCATAAAAGTATCATCACTCCT
B2: CSF1Rmut (dsDNA)
DNA 1: CCAGGTGGAGATACTTGTATGATGGGGGCAG
DNA 2: CTGCCCCCATCATACAAGTATCTCCACCTGG
B3: THE1Dmut (dsDNA)
DNA 1: CCTGTGGGAGGTACTCCTATGATGGAGGCAG
DNA 2: CTGCCTCCATCATAGGAGTACCTCCCACAGG

DUX4-fl, sequence (Q9UBX2 whole entry): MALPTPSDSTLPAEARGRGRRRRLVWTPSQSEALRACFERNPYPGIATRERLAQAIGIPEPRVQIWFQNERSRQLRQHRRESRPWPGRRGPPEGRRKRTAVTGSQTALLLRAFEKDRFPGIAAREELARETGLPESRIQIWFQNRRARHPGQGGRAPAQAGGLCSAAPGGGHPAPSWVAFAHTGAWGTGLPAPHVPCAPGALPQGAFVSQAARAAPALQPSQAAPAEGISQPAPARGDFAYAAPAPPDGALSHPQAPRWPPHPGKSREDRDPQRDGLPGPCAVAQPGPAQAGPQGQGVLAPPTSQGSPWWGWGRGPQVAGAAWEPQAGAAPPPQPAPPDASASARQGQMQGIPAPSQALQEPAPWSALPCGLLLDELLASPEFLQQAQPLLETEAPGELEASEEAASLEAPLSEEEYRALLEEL

The target of the data set is DUX4-fl (Homo sapiens, UniProt Q9UBX2 SEQ:1-424). Put plainly: EMSA; cold mutant does not compete. To be noted: tags: pCS2-DUX4-fl, TNT SP6 wheat germ. The procedure:
EMSA was performed with ³²P-labeled 31-bp oligonucleotides from endogenous genomic sequences containing the putative DUX4 binding site as probes (sequences below; only forward shown). Radiolabeled probes were incubated with in vitro translated protein generated from pCS2-DUX4-fl or pCS2-DUX4-s² vectors using the TNT SP6 Coupled Wheat Germ Extract System (Promega) according to manufacturer's instructions. To obtain supershift of protein-DNA complexes, 0.1 μg of E14-3 anti-DUX4 rabbit monoclonal antibody was added to the mixtures. For competition experiments, excess unlabeled probes of either wild-type or mutant sequences were included in the binding reaction. The gels were prepared and run as previously described (Knoepfler et al., 1999).
Electrophoretic mobility shift assay (EMSA) confirmed that DUX4-fl binds the core motifs present in both MaLR-associated and non-repeat associated sites: TRIM48 oligos—the TAATTTAATCA (SEQ ID NO:169) core sequence found near the TRIM48 gene, CSF1R oligos—the TAATTGAATCA (SEQ ID NO:171) core sequence found within the LTR of a THE1B retroelement near the CSF1R gene, and THE1D oligos—the TAATCCAATCA (SEQ ID NO:172) core sequence found within the LTR of the THE1D retroelement. […] Because the DUX4-s alternative splice form retains the N-terminal DNA-binding homeodomains, the inventors hypothesized that it would bind to the same sites as DUX4-fl. EMSA confirmed that DUX4-s specifically binds the same core binding site as DUX4-fl in vitro.
(In general: In EMSA bound probe runs differently from free probe, usually more slowly.)
B1: the binding result is reported as “no binding”.

In the case of B2, the binding result is on record as “no binding”.

Consider B3, for which the binding result is listed as “no binding”.
